In PMC9409550:

How the values were obtained:
Experiment in all cases: flow cytometry on cells
[1] = target: WIV16 RBD, yeast-displayed (bat sarbecovirus WIV16)
[2] = target: BANAL-236 RBD, yeast-displayed (bat sarbecovirus BANAL-236)
[3] = target: BANAL-103 RBD, yeast-displayed (bat sarbecovirus BANAL-103)
[4] = target: Rs4874 RBD, yeast-displayed (bat sarbecovirus Rs4874)
[5] = target: Khosta-2 RBD, yeast-displayed (bat sarbecovirus Khosta-2)

Chain of CDY14HL-Fc1 (Q9BYF1 18-615): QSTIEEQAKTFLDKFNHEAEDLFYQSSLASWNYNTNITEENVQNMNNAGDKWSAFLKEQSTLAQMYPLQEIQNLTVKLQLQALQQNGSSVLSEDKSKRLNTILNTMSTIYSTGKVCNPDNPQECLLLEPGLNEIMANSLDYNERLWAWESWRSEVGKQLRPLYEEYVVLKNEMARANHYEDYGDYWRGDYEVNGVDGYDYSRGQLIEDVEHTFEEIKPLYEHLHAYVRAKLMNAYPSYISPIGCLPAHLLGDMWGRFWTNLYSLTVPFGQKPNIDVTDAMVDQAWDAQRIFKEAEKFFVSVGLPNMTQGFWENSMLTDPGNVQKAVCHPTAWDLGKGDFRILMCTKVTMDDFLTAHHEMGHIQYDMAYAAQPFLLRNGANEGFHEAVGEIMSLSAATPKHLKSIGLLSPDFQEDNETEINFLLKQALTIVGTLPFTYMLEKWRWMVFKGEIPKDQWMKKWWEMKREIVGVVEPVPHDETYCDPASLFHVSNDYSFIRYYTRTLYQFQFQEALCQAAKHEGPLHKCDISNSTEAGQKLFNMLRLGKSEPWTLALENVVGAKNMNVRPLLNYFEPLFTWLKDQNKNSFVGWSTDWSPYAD

Substance “CDY14HL-Fc1 (from UniProt Q9BYF1 18-615) (Fc fusion)” has a Kd [1] of 0.24 nM, a Kd [2] of 0.24 nM and a Kd [3] of 0.3 nM. The Kd [4] was 0.23 nM and the Kd [5] was 1.9 nM.
